Assay results: patent US20210340208A1 (ANWITA BIOSCIENCES, published 2021)

Legend:
IL-2Rα-Fc fusion protein = biological target: T1, IL-2Rα-Fc fusion protein (human, UniProt P01589 22-240); experiment: BLI (Octet RED96), IL-2Rα-Fc on AHC biosensor
T1 construct: also called human IL-2Rα (CD25); CD25; not shown: Fc part and any linker are not described; captured on an anti-human IgG Fc sensor
T1 sequence: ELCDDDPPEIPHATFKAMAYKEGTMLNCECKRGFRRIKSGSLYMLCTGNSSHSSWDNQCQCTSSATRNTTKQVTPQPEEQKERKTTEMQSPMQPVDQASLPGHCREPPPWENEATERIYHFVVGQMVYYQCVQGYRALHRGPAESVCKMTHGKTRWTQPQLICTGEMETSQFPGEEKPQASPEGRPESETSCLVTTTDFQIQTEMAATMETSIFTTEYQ
Description: OCTET® RED96 was used to characterize the interactions of a wild-type hIL-2 and hIL-2 muteins with a human IL-2Rα (CD25). Briefly, an IL-2Rα-Fc fusion protein was loaded onto an anti-human IgG Fc capture (AHC) biosensor. The biosensor was then dipped into a solution containing a wild-type hIL-2 (WT IL-2) or an IL-2 mutein at various concentrations. Primary experimental data was analyzed with global fitting to determine a binding affinity (Kd).

[1] = biological target: T2, IL-2Rα, β, and γ chains on preactivated human CD3 T-cells (human, UniProt P01589 22-272; P14784 27-551; P31785 23-369); experiment: cell-based or functional assay
T2 sequence (looked up) 1: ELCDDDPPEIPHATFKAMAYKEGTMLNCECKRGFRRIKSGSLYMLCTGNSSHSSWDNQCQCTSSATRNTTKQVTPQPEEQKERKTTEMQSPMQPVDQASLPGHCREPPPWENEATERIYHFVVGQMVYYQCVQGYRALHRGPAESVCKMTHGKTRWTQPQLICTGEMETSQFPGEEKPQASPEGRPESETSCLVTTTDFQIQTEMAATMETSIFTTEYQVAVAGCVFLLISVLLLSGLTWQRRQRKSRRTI
T2 sequence (looked up) 2: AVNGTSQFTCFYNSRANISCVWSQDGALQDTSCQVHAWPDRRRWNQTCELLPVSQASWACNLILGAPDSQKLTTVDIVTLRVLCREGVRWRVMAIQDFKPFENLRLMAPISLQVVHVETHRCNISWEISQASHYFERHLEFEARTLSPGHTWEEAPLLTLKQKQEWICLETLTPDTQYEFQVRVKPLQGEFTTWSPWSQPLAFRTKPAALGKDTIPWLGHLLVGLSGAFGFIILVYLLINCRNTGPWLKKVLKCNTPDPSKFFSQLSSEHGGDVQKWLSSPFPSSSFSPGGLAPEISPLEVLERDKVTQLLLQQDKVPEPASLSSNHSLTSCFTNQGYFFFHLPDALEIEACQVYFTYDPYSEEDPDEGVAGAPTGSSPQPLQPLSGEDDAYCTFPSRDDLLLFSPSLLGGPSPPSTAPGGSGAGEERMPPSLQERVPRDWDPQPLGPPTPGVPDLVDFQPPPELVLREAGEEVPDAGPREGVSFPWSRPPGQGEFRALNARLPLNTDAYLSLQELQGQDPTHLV
T2 sequence (looked up) 3: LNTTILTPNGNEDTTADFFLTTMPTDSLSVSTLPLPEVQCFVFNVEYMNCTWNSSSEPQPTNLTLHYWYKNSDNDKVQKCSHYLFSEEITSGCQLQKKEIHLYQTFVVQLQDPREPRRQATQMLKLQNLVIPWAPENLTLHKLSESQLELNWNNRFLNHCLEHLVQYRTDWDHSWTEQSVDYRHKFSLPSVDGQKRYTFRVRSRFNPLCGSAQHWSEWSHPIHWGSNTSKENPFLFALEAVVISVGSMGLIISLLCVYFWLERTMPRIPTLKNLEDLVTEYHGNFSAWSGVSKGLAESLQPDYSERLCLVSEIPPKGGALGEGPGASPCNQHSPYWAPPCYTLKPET

binding result (IL-2Rα-Fc fusion protein): no binding
EC50 of STAT5 phosphorylation (phospho-STAT5 Tyr694 HTRF) [1]: 0.92 nM
B1: hIL-2-anti-HSA A37 (ligand)
chain: APTSSSTKKTQLQLEHLLLDLQMILNGINNYENPKLTRMLTAKFYMPKKATELKHLQCLEEELKPLEEVLNLAQSKNFHLRPRDLISNINVIVLELKGSETTFMCEYADETATIVEFLNRWITFSQSIISTLTGSGGSGGSGGSGEVQLVESGGGLVQPGGSLRLSCAASGSTWSINTLAWYRQAPGKQRDLVARISSGGSTYYADSVKGRFTISRDNSKNTLYLQMNSLRAEDTAVYYCYAQSTWYPPSWGQGTLVTVSS
notes: fused to anti-HSA VHH; also called IL2 mutein (K32E, F42A, C125S)
